Reference: patent US20230087378A1 (UCB, published 2023)
“And” between values parts separate entries of the source, which are not always exact repeats. Equal values may be shown once.

What was measured:
Human IL-17A [1] = target: T1, Human IL-17A (human, UniProt Q16552 24-155); assay: cell-based or functional assay
Human IL-17F [2] = target: T2, Human IL-17F (human, UniProt Q96PD4 31-163); assay: cell-based or functional assay
T2 sequence (looked up): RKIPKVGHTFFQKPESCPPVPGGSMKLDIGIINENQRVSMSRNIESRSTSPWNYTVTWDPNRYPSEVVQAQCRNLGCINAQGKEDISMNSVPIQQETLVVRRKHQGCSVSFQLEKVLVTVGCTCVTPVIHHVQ

Human IL-13 [3] = target: T3, Human IL-13 (human, UniProt P35225 35-146); assay: cell-based or functional assay
Human IL-13 [4] = target: T3, Human IL-13; assay: cell-based or functional assay; remark: listed apart in the source
Human IL-17A [5] = target: T1, Human IL-17A; assay: cell-based or functional assay; remark: listed apart in the source
Human IL-17F [6] = target: T2, Human IL-17F; assay: cell-based or functional assay; remark: listed apart in the source
Cyno IL-17A [7] = target: T4, Cyno IL-17A (cynomolgus, UniProt A0A2K5TTB0 24-155); assay: cell-based or functional assay
Cyno IL-17F [8] = target: T5, Cyno IL-17F (cynomolgus, UniProt G7P4V0 31-163); assay: cell-based or functional assay
T5 sequence: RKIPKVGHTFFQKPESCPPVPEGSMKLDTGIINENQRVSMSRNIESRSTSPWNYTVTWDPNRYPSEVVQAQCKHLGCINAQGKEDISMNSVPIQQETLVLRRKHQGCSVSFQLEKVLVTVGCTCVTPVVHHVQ

[9] = target: mixture of human IL-17A, IL-13 and albumin (human); assay: SPR, response of the human mixture against the sum of the single-analyte responses
[10] = target: mixture of cynomolgus IL-17A, IL-13 and albumin (cynomolgus); assay: SPR, response of the cynomolgus mixture against the sum of the single-analyte responses
[11] = target: mixture of human IL-17A, IL-13 and albumin (human); assay: SPR, mixture of human IL-13, IL-17A and albumin injected together over captured antibody
[12] = target: mixture of cynomolgus IL-17A, IL-13 and albumin (cynomolgus); assay: SPR, mixture of cynomolgus IL-13, IL-17A and albumin injected together over captured antibody
[13] = target: mixture of human IL-17A, IL-13 and albumin (human); assay: SPR, response of the human mixture against the sum of the single-analyte responses, mean of n = 3
[14] = target: mixture of cynomolgus IL-17A, IL-13 and albumin (cynomolgus); assay: SPR, response of the cynomolgus mixture against the sum of the single-analyte responses, mean of n = 3
Cyno IL-13 = target: T6, Cyno IL-13 (cynomolgus, UniProt Q0PW92 21-132); assay: SPR (Biacore T200), antibody captured on anti-human F(ab')2, analyte in solution, 25 C, 1:1 model
T6 construct: also called Cynomolgus IL-13
Description: (§1) A goat anti-human IgG, F(ab′)₂ fragment specific antibody (Jackson ImmunoResearch) was immobilised on a CM5 Sensor Chip via amine coupling chemistry to a level of approximately 5000 RU. […] Buffer blank injections were included to subtract instrument noise and drift.

Cyno albumin = target: T7, Cyno albumin (cynomolgus, UniProt A2V9Z4 25-608); assay: as above
T7 construct: also called Cynomolgus albumin
Description: as §1

Human IL-17A [15] = target: T1, Human IL-17A; assay: as above
Description: as §1

Human IL-17AF = target: T8, Human IL-17AF (human, UniProt Q16552 24-155; Q96PD4 31-163); assay: as above
T8 construct: also called IL-17A/F heterodimer
Description: as §1

Human IL-17F [16] = target: T2, Human IL-17F; assay: as above
Description: as §1

Human IL-13 [17] = target: T3, Human IL-13; assay: as above
Description: as §1

Human albumin = target: T9, Human albumin (human, UniProt P02768 25-609); assay: as above
T9 construct: also called human serum albumin
Description: as §1

Cyno IL-17A [18] = target: T4, Cyno IL-17A; assay: as above
Description: as §1

Cyno IL-17AF = target: T10, Cyno IL-17AF (cynomolgus, UniProt A0A2K5TTB0 24-155; G7P4V0 31-163); assay: as above
T10 construct: also called Cynomolgus IL-17AF
Description: as §1

Cyno IL-17F [19] = target: T5, Cyno IL-17F; assay: as above
Description: as §1

Human IL-13 [20] = target: T3, Human IL-13; assay: SPR (Biacore T200), antibody captured on anti-human F(ab')2, human IL-13 as analyte, 25 C, 1:1 model
Method: (§2) A goat anti-human IgG, F(ab′)₂ fragment specific antibody (Jackson ImmunoResearch) was immobilised on a CM5 Sensor Chip via amine coupling chemistry to a level of approximately 5000 RU. […] At the end of each cycle the surface was regenerated at a flowrate of 10 μl/min using a 60 s injection of 50 mM HCl followed by a 30 s injection of 5 mM NaOH and a final 60 s injection of 50 mM HCl. […] Buffer blank injections were included to subtract instrument noise and drift.
(§3) Kinetic parameters were determined using a 1:1 binding model using Biacore T200 Evaluation software (version 3.0).

Human IL-17A [21] = target: T1, Human IL-17A; assay: SPR (Biacore T200), antibody captured on anti-human F(ab')2, human IL-17A as analyte, 25 C, 1:1 model
Method: as §2, §3

Human IL-17F [22] = target: T2, Human IL-17F; assay: SPR (Biacore T200), antibody captured on anti-human F(ab')2, human IL-17F as analyte, 25 C, 1:1 model
Method: as §2, §3

B1: IL-13/IL-17AF multi-specific antibody (bispecific antibody)
heavy: EVQLVESGGGLVQPGGSLRLSCAASGFTFSDYNMAWVRQAPGKGLEWVATITYEGRNTYYRDSVKGRFTISRDNAKNSLYLQMNSLRAEDTAVYYCASPPQYYEGSIYRLWFAHWGQGTLVTVSSASTKGPSVFPLAPSSKSTSGGTAALGCLVKDYFPEPVTVSWNSGALTSGVHTFPAVLQSSGLYSLSSVVTVPSSSLGTQTYICNVNHKPSNTKVDKKVEPKSCSGGGGTGGGGSEVQLLESGGGLVQPGGSLRLSCAVSGIDLSNYAINWVRQAPGKCLEWIGIIWASGTTFYATWAKGRFTISRDNSKNTVYLQMNSLRAEDTAVYYCARTVPGYSTAPYFDLWGQGTLVTVSSGGGGSGGGGSGGGGSGGGGSDIQMTQSPSSVSASVGDRVTITCQSSPSVWSNFLSWYQQKPGKAPKLLIYEASKLTSGVPSRFSGSGSGTDFTLTISSLQPEDFATYYCGGGYSSISDTTFGCGTKVEIKRT
light: AIQLTQSPSSLSASVGDRVTITCRADESVRTLMHWYQQKPGKAPKLLIYLVSNSEIGVPDRFSGSGSGTDFRLTISSLQPEDFATYYCQQTWSDPWTFGQGTKVEIKRTVAAPSVFIFPPSDEQLKSGTASVVCLLNNFYPREAKVQWKVDNALQSGNSQESVTEQDSKDSTYSLSSTLTLSKADYEKHKVYACEVTHQGLSSPVTKSFNRGECSGGGGSGGGGSEVQLVQSGAEVKKPGSSVKVSCKASGYSFTSYYIHWVRQAPGQCLEWMGRIGPGSGDINYNEKFKGRATFTVDKSTSTAYMELSSLRSEDTAVYYCARFHYDGADWGQGTLVTVSSGGGGSGGGGSGGGGSGGGGSDIQMTQSPSSLSASVGDRVTITCKASQNINENLDWYQQKPGKAPKLLIYYTDILQTGIPSRFSGSGSGTDYTLTISSLQPEDFATYYCYQYYSGYTFGCGTKLEIKRT
notes: also called UCBXXXX; IL-17AF-IL-13 multi-specific antibody
Human IL-17A [1]
  inhibition of CXCL1 release from NHEK treated with a mixture of IL-13, IL-17A and IL-17F: 81.3%
Human IL-17F [2]
  inhibition of CXCL1 release from NHEK treated with a mixture of IL-13, IL-17A and IL-17F: 81.3%
Human IL-13 [3]
  inhibition of CXCL1 release from NHEK treated with a mixture of IL-13, IL-17A and IL-17F: 81.3%
Human IL-13 [4]
  IC50 for inhibition of STAT6 signalling (HEK 293 Human IL4/IL-13 SEAP reporter cells): 4.12 pM and 0.412 ng/ml
Human IL-17A [5]
  IC50, inhibition of IL-6 release from nHDF stimulated with IL-17A and TNF-α: 0.042 nM
Human IL-17F [6]
  IC50, inhibition of IL-6 release from nHDF stimulated with IL-17F and TNF-α: 28 nM
Cyno IL-17A [7]
  IC50, inhibition of IL-6 release from nHDF stimulated with IL-17A and TNF-α: 0.049 nM
Cyno IL-17F [8]
  IC50, inhibition of IL-6 release from nHDF stimulated with IL-17F and TNF-α: 34.3 nM
[9]
  Binding of Mixture as a Percentage of Individual Binding Responses (%), n = 1: 100%
  Binding of Mixture as a Percentage of Individual Binding Responses (%), n = 2: 100%
  Binding of Mixture as a Percentage of Individual Binding Responses (%), n = 3: 100%
[10]
  Binding of Mixture as a Percentage of Individual Binding Responses (%), n = 1: 97%
  Binding of Mixture as a Percentage of Individual Binding Responses (%), n = 2: 96%
  Binding of Mixture as a Percentage of Individual Binding Responses (%), n = 3: 97%
[11]
  Binding, n = 1 (RU): 81 RU
  Binding, n = 2 (RU): 131 RU
  Binding, n = 3 (RU): 129 RU
[12]
  Binding, n = 1 (RU): 146 RU
  Binding, n = 2 (RU): 141 RU
  Binding, n = 3 (RU): 145 RU
[13]
  Binding of Mixture as a Percentage of Individual Binding Responses (%), Mean: 100%
[14]
  Binding of Mixture as a Percentage of Individual Binding Responses (%), Mean: 97%
Cyno IL-13
  Kd: 0.156 nM
  koff: 0.000148 s⁻¹
  kon: 948000 M⁻¹ s⁻¹
Cyno albumin
  Kd: 2.47 nM
  koff: 0.000204 s⁻¹
  kon: 81800 M⁻¹ s⁻¹
Human IL-17A [15]
  Kd: 0.009 nM
  koff: 1.57e-05 s⁻¹
  kon: 2.26e+06 M⁻¹ s⁻¹
Human IL-17AF
  Kd: 0.015 nM
  koff: 4.54e-05 s⁻¹
  kon: 3.7e+06 M⁻¹ s⁻¹
Human IL-17F [16]
  Kd: 0.128 nM
  koff: 0.000198 s⁻¹
  kon: 1.67e+06 M⁻¹ s⁻¹
Human IL-13 [17]
  Kd: 0.026 nM
  koff: 3.84e-05 s⁻¹
  kon: 1.46e+06 M⁻¹ s⁻¹
Human albumin
  Kd: 2.51 nM
  koff: 0.000154 s⁻¹
  kon: 66500 M⁻¹ s⁻¹
Cyno IL-17A [18]
  Kd: 0.007 nM
  koff: 1.24e-05 s⁻¹
  kon: 1.65e+06 M⁻¹ s⁻¹
Cyno IL-17AF
  Kd: 0.014 nM
  koff: 2.87e-05 s⁻¹
  kon: 2.25e+06 M⁻¹ s⁻¹
Cyno IL-17F [19]
  Kd: 0.283 nM
  koff: 0.000282 s⁻¹
  kon: 1.14e+06 M⁻¹ s⁻¹
Human IL-13 [20]
  Kd: 0.0258 nM
  koff: 0.000111 s⁻¹
  kon: 3.61e+06 M⁻¹ s⁻¹
Human IL-17A [21]
  Kd: 0.0082 nM
  koff: 3.45e-05 s⁻¹
  kon: 3.2e+06 M⁻¹ s⁻¹
Human IL-17F [22]
  Kd: 0.0821 nM
  koff: 0.000219 s⁻¹
  kon: 2.66e+06 M⁻¹ s⁻¹
